{
  "source": "patent US20250262210A1",
  "about": "(TRUSTEES OF COLUMBIA UNIVERSITY IN THE CITY OF NEW YORK, published 2025)",
  "binders": {"B1": {"name": "LZTR1 R810W-FLAG (other, human, UniProt Q8N653 1-840, looked up)", "chain": "MAGPGSTGGQIGAAALAGGARSKVAPSVDFDHSCSDSVEYLTLNFGPFETVHRWRRLPPCDEFVGARRSKHTVVAYKDAIYVFGGDNGKTMLNDLLRFDVKDCSWCRAFTTGTPPAPRYHHSAVVYGSSMFVFGGYTGDIYSNSNLKNKNDLFEYKFATGQWTEWKIEGRLPVARSAHGATVYSDKLWIFAGYDGNARLNDMWTIGLQDRELTCWEEVAQSGEIPPSCCNFPVAVCRDKMFVFSGQSGAKITNNLFQFEFKDKTWTRIPTEHLLRGSPPPPQRRYGHTMVAFDRHLYVFGGAADNTLPNELHCYDVDFQTWEVVQPSSDSEVGGAEVPERACASEEVPTLTYEERVGFKKSRDVFGLDFGTTSAKQPTQPASELPSGRLFHAAAVISDAMYIFGGTVDNNIRSGEMYRFQFSCYPKCTLHEDYGRLWESRQFCDVEFVLGEKEECVQGHVAIVTARSRWLRRKITQARERLAQKLEQEAAPVPREAPGVAAGGARPPLLHVAIREAEARPFEVLMQFLYTDKIKYPRKGHVEDVLLIMDVYKLALSFQLCRLEQLCRQYIEASVDLQNVLVVCESAARLQLSQLKEHCLNFVVKESHFNQVIMMKEFERLSSPLIVEIVRRKQQPPPRTPLDQPVDIGTSLIQDMKAYLEGAGAEFCDITLLLDGHPRPAHKAILAARSSYFEAMFRSFMPEDGQVNISIGEMVPSRQAFESMLRYIYYGEVNMPPEDSLYLFAAPYYYGFYNNRLQAYCKQNLEMNVTVQNVLQILEAADKTQALDMKRHCLHIIVHQFTKVSKLPTLWSLSQQLLLDIIDSLASHISDKQCAELGADI", "notes": "Stably expressed in U87 cells by lentivirus; also called LZTR1-FLAG-R810W; LZTR1 RW; not shown: FLAG tag"}},
  "key": {"[1]": {"target": "T1, FHOD1 (human, UniProt Q9Y613 2-1164)", "T1 sequence (looked up)": "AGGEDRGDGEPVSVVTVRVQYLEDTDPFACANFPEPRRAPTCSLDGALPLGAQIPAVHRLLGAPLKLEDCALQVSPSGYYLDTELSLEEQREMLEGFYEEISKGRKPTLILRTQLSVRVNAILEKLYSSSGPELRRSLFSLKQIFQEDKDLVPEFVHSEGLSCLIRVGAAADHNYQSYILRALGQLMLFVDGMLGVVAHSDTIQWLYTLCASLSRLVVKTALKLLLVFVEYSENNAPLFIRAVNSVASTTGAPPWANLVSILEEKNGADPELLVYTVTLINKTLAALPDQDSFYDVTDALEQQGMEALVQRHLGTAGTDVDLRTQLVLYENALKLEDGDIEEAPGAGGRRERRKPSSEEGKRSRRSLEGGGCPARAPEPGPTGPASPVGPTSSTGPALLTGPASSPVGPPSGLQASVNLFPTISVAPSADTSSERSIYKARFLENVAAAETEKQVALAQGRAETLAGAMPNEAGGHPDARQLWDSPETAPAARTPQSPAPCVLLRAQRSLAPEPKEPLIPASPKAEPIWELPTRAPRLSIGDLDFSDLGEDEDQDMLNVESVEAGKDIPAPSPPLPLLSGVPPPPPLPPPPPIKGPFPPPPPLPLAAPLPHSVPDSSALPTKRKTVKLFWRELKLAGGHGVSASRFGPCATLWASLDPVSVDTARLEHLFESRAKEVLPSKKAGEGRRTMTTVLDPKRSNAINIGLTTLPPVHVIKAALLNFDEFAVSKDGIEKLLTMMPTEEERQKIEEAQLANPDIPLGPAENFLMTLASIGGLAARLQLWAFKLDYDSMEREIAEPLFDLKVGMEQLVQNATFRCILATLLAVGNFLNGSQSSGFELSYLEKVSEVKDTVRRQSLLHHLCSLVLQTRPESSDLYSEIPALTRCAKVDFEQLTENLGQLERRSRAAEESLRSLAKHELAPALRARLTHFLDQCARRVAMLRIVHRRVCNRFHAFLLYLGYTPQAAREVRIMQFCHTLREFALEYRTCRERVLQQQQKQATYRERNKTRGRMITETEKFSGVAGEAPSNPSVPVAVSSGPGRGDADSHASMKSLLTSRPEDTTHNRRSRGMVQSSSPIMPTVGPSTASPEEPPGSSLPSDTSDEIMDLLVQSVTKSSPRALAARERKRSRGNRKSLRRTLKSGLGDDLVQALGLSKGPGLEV", "assay": "IP/MS, LZTR1 R810W-FLAG, U87", "how_it_was_run": "(§1)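 Extracted peptides in 3% acetonitrile/0.1% formic acid ran on a 50 cm C18 column into an Orbitrap Fusion, with MaxQuant identification and spectral counting.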"}, "[2]": {"target": "URB1 (human, UniProt O60287 1-2271)", "sequence (O60287 whole entry)": "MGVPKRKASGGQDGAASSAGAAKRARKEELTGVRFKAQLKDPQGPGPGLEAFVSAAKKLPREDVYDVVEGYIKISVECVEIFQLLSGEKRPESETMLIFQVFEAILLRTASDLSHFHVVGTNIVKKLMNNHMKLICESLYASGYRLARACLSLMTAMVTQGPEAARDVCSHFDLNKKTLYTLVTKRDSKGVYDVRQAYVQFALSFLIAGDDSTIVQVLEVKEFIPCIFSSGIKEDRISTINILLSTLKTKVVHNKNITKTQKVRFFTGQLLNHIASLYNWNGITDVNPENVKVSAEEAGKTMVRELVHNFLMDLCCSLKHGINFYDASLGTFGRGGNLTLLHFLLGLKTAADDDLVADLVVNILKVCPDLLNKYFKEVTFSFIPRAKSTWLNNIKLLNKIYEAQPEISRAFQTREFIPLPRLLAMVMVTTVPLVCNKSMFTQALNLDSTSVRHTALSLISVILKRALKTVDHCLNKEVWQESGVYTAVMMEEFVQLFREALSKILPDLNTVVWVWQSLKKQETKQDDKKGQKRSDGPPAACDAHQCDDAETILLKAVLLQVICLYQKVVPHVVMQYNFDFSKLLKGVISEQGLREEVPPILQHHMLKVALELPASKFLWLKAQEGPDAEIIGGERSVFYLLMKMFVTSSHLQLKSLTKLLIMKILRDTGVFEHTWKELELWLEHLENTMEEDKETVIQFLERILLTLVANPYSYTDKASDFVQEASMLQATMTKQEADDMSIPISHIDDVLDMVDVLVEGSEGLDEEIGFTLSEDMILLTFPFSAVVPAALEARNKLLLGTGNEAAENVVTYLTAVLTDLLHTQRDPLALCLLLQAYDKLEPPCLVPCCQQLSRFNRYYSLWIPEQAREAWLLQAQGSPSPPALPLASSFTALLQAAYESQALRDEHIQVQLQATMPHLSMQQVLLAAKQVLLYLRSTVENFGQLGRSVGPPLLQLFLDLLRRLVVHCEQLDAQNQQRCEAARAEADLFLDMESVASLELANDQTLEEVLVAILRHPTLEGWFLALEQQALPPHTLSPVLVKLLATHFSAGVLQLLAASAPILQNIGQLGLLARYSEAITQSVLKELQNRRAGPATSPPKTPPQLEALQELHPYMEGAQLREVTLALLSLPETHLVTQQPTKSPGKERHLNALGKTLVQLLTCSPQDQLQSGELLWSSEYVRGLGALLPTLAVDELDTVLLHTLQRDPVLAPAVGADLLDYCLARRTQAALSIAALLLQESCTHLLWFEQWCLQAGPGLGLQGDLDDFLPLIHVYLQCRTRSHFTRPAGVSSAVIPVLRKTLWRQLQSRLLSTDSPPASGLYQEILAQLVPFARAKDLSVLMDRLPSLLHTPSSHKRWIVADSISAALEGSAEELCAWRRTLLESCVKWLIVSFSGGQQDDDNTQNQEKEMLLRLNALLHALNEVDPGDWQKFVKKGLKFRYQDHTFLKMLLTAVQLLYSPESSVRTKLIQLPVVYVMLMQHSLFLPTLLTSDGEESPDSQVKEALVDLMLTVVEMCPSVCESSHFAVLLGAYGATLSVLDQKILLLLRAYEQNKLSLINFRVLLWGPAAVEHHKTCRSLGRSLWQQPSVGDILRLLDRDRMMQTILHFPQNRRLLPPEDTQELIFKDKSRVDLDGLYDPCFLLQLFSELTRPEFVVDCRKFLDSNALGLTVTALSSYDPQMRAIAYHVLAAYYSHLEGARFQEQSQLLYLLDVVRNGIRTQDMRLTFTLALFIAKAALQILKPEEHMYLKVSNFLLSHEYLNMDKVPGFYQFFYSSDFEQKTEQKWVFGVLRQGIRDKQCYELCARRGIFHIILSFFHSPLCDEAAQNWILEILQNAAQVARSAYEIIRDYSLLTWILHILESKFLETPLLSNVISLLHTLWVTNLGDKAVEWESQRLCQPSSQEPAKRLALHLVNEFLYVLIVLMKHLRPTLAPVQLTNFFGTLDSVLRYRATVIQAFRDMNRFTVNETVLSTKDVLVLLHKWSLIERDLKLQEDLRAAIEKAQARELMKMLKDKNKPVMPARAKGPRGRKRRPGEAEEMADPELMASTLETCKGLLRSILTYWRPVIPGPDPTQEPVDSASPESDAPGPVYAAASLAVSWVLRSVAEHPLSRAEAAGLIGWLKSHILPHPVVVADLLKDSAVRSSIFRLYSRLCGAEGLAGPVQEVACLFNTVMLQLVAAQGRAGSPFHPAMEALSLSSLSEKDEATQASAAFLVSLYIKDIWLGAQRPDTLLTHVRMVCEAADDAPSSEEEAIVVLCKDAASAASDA", "assay": "IP/MS, LZTR1 R810W-FLAG, U87", "how_it_was_run": "as §1"}},
  "data": [
    {"binder": "B1", "values": [
      {"measurement": "binding result", "setting": "[1]", "result": "binds"},
      {"measurement": "binding result", "setting": "[2]", "result": "binds"}
    ]}
  ]
}
